The text below walks through data of paper PMC7544203.

In data set [1] the target is T1, YTHDC1 YTH domain (Homo sapiens, UniProt Q96MU7 345-509). Put plainly: ITC.
Data set [2] deals with T1, YTHDC1 YTH domain. Description: X-ray crystallography.

Take CGCGGACTCTG (ssDNA, none) [unmodified 11-nt ssDNA]: the binding result with YTHDC1 YTH domain [1] was “no binding”.
CGCGGACTCTG (ssDNA, N6-methyladenine at A6) [11-nt N6mA ssDNA]: the dissociation constant Kd with YTHDC1 YTH domain [1] turned out to be 10 nM.
For the molecule CGCGGACUCUG (ssRNA, none) [unmodified 11-nt ssRNA], in the data set with YTHDC1 YTH domain [1], the binding result was “no binding”.
Turning to CGCGGACTTC (ssDNA, N6-methyladenine at A6) [10-nt N6mA ssDNA], in the data set with YTHDC1 YTH domain [2], the binding result was “binds”.
